# Values quoted from earlier work as cited in patent publication US20100209353A1, “TUMOR TARGETING PROTEIN CONJUGATE AND A METHOD FOR PREPARING THE SAME” (KOREA INSTITUTE OF SCIENCE AND TECHNOLOGY, priority 2009, published 2010).
# Conditions: conventional albumin
substance,measurement,value
albumin,particle size,2˜5 nm
